# Reference: patent US20240383974A1 (BETTA PHARMACEUTICALS, published 2024)
# Residue numbers refer to the chain shown, from its start.
# B1: antibody m107-hu (antibody, V domains shown)
# VH: QVQLVQSGAEVKRPGASVKVSCKASGYTFSAYTIHWVKQRPGQGLEWIGYINPSNDFAKYIQKFKDKVTITADKSTSTAYMELNSLRSEDTAVYYCARVDYYGGSYRWYLDVWGQGTTVTVSS
# VL: DIVLTQSPATLSLSPGERATLSCRASQSISNNLHWYQQKPGEAPRLLIKYTSQSISGIPARFSGSGSGTDFTLTISSLEPEDFAVYFCQQSNSWPIFTFGQGTKLEIK
# notes: Humanized m107
# B2: antibody m301-hu (antibody, V domains shown)
# VH: QVQLQESGPGLVKPSGTLSLTCAVSGFSLTTYGVTWVRQPPGKGLEWIGLIWGDGTTDYHSTFISRLTISKDKSKNQVSLKLSSVTAADTAVYYCASYYFAMHYWGQGTLVTVSS
# VL: DIVMTQSPDSLAVSLGERATINCKSSQSLLNSRTQKNYLAWYQQKPGQSPKLLIYWASTRESGVPDRFSGSGSGTDFTLTISSLQAEDVAVYYCKQSYNLWTFGGGTKVEIK
# notes: Humanized m301
# B3: antibody m109-hu (antibody, V domains shown)
# VH: EVQLVESGGGLVQPGGSLRLSCATSGFTFSDYYMYWVRQTPEKRLEWVAYISNGGGRTYYPDTVKGRFTISRDNAKNSLYLQMSRLRAEDTAVYYCARQKTNYGNYEEDYYAMGYWGQGTSVTVSS
# VL: DIVLTQSPASLAVSLGQRATITCRASKSVSTSGYSYIHWYQQKPGQPPKLLIYLASNLESGVPARFSGSGSGTDFTLTINPVEEEDAATYYCQHSRELPLTFGAGTKLEIK
# notes: Humanized m109
# B4: antibody m202-hu (antibody, V domains shown)
# VH: QVQLVQSGAEVKKPGASVKVSCKASGYTFTSYWMHWVKQAPGQGLEWIGNINPSNGDTNYNEKFKSKATLTVDKSTSTAYMELRSLRSDDTAVYYCARATYGSYGYFDVWGQGTLVTVSS
# VL: DIVLTQSPDSLAVSLGERATINCRASESVTIIGTNLIQWFQQKPGQPPKLLIYHASNLETGVPDRFSGSGSRTDFTLTISSLQAEDVAVYYCLQSRQIPRTFGGGTKVEIK
# notes: Humanized m202
# B5: antibody m301 (antibody, V domains shown)
# VH: QVQLKESGPGLVAPSQSLSITCTVSGFSLTTYGVTWVRQPPGKGLQWLGLIWGDGTTDYHSTFISRLSISKDKSKNQVFFKLNSLQTDDTATYYCASYYFAMHYWGQGTSVTVSS
# VL: DIVMSQSPSSLAVSAGEKVTMNCKSSQSLLNSRTQKNYLAWYQQKPGQSPKLLIYWASTRESGVPDRFTGSGSGTDFTLTIISVQAEDLAVYYCKQSYNLWTFGGGTKLEIK
# B6: antibody m202 (antibody, V domains shown)
# VH: QVQLQQPGTELVKPGASVKLSCKASGYTFTSYWMHWVKQRPGQGLEWIGNINPSNGDTNYNEKFKSKATLTVDKSSSTAYMQLSSLTSDDSAVYYCARATYGSYGYFDVWGTGTAVTVSS
# VL: DIVLTQSPASLAMSLGKRATISCRASESVTIIGTNLIQWFQQKPGQPPKLLIYHASNLETGVPARFSGSGSRTDFTLTIDPVEEDDVAIYYCLQSRQIPRTFGGGTKLEIK
# B7: antibody m109 (antibody, V domains shown)
# VH: B3 VH with Q3K, R19K, S78T, R87K, A88S, T91R, V93I
# VL: B3 VL with T22S, T78N, N80H, E109D, I110L
# B8: antibody D1hu (VHH)
# VHH: EVQLVESGGGLVQPGGSLRLSCTASGRDFLTYGMGWFRQAPGKELEFVASINWSGSMTYYADSVKGRFTISRDNAKNTVYLQMNSLRAEDTAVYICAARRGAVTYASSNEYEHWGQGTQVTVSS
# notes: Humanized anti-PD-L1 nanobody
# B9: antibody C (VHH)
# VHH: B8 VHH with L11S, P14T, T23V, L45R, R87K, A88P, E89G
# notes: Anti-PD-L1 alpaca nanobody
# B10: antibody D2hu (VHH)
# VHH: B8 VHH with T23A, E44G, T78S
# notes: Humanized anti-PD-L1 nanobody
# B11: antibody D (VHH)
# VHH: B8 VHH with P14A, G16D, L45R, R87K, A88P, E89G
# notes: Anti-PD-L1 alpaca nanobody
# B12: antibody Chu (VHH)
# VHH: B8 VHH with T23A, E44G, L45R, R87K, Q119L
# notes: Humanized anti-PD-L1 nanobody
# B13: antibody A (VHH)
# VHH: QVQLVESGGGLVQAGGSLRLSCAASGRSFSSSGMGWFRQAPGKDREFVATINSSGGDTYYRDSVEGRFTTSRDNAKNTMSLQMNDLKPEDTAVYYCAAKEGGGPSSIPAIYDYWGQGTQVTVSS
# notes: Anti-PD-L1 alpaca nanobody
# B14: antibody Ahu (VHH)
# VHH: B13 VHH with L11V, A14P, D44G, A75S, S80Y, D85S, K87R, P88A, Q119L
# notes: Humanized anti-PD-L1 nanobody
# B15: antibody E (VHH)
# VHH: B13 VHH with R61A, Y111F
# notes: Anti-PD-L1 alpaca nanobody
# B16: antibody B (VHH)
# VHH: QVQLVESGGGLVQPGGSLSLSCVASGFTFSSYAMRWVRQAPGKEPEWVAGINTGSEIVVYANSVRGRFAISRDNARDTLFLQMNSLKPEDTAVYYCATGLVSAEHDGIWGQGTQVTVSS
# notes: Anti-PD-L1 alpaca nanobody
# B17: antibody Bhu (VHH)
# VHH: B16 VHH with L11V, S19R, V23A, E44G, P45L, A69T, A75S, F80Y, K87R, P88A
# notes: Humanized anti-PD-L1 nanobody
# B18: b202-L-Bhu (bispecific antibody)
# heavy: not shown
# light: DIVLTQSPDSLAVSLGERATINCRASESVTIIGTNLIQWFQQKPGQPPKLLIYHASNLETGVPDRFSGSGSRTDFTLTISSLQAEDVAVYYCLQSRQIPRTFGGGTKVEIKRTVAAPSVFIFPPSDEQLKSGTASVVCLLNNFYPREAKVQWKVDNALQSGNSQESVTEQDSKDSTYSLSSTLTLSKADYEKHKVYACEVTHQGLSSPVTKSFNRGECGGGGSGGGGSGGGGSGGGGSQVQLVESGGGVVQPGGSLRLSCAASGFTFSSYAMRWVRQAPGKGLEWVAGINTGSEIVVYANSVRGRFTISRDNSRDTLYLQMNSLRAEDTAVYYCATGLVSAEHDGIWGQGTQVTVSS
# B19: b305-H-Bhu-D2hu (bispecific antibody)
# heavy: not shown
# light: DIQMTQSPSSLSASVGDRVTITCRASQEISGYLSWLQQKPGGAPKRLIYAASTLDSGVPSRFSGSRSGTDYTLTISSLQPEDFATYYCLQYASYPTCTFGGGTKVEIKRTVAAPSVFIFPPSDEQLKSGTASVVCLLNNFYPREAKVQWKVDNALQSGNSQESVTEQDSKDSTYSLSSTLTLSKADYEKHKVYACEVTHQGLSSPVTKSFNRGEC
# notes: Tandem architecture and constant regions as noted for b301-H-Bhu-D2hu
# B20: b202-H-Bhu-D2hu (bispecific antibody)
# heavy: not shown
# light: DIVLTQSPDSLAVSLGERATINCRASESVTIIGTNLIQWFQQKPGQPPKLLIYHASNLETGVPDRFSGSGSRTDFTLTISSLQAEDVAVYYCLQSRQIPRTFGGGTKVEIKRTVAAPSVFIFPPSDEQLKSGTASVVCLLNNFYPREAKVQWKVDNALQSGNSQESVTEQDSKDSTYSLSSTLTLSKADYEKHKVYACEVTHQGLSSPVTKSFNRGEC
# notes: as for B19
# Target: T1, human transforming growth factor β1 (human, UniProt P01137 279-390)
# T1 construct: Coated on the ELISA plate at 100 ng/well; also called hTGF-β1; TGF-β
# T1 sequence (P01137 279-390 limits assumed): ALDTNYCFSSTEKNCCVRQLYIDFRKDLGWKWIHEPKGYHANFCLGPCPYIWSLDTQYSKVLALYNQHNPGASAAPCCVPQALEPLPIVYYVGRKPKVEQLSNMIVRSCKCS
# Experiment: ELISA, plate-coated hTGF-β1
row,Binder,EC50
1,B1,7.5 nM
2,B2,< 2 nM
3,B3,0.73 nM
4,B4,< 2 nM

# Target: T2, GARP-TGF-β complex (293-GARP/TGFβ stably transfected cells) (UniProt Q14392 20-662; P01137 30-390)
# T2 construct: whole, on cells; Complex of GARP and (latent) TGF-β on the cell surface; also called 293-GARP/TGFβ cell; 293F-GAPR/TGFβ/αvβ6 cells
# T2 sequence (Q14392 20-662, chain 1 of 2): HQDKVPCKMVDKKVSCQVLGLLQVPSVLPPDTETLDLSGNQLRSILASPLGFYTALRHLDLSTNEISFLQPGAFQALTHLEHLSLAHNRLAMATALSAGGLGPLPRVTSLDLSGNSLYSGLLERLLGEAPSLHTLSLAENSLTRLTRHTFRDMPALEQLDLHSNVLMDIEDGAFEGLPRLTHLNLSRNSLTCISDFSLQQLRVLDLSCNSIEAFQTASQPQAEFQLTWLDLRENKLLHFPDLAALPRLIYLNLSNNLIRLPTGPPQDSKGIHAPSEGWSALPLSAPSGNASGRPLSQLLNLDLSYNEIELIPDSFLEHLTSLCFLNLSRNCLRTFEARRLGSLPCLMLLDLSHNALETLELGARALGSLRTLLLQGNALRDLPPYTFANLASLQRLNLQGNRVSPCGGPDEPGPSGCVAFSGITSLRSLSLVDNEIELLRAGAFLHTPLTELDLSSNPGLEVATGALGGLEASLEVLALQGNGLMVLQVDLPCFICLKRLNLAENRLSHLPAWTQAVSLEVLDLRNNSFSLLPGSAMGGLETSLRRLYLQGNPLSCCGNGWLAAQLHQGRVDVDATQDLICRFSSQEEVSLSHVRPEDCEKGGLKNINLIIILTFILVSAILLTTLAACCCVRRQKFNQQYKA
# T2 sequence (P01137 30-390, chain 2 of 2): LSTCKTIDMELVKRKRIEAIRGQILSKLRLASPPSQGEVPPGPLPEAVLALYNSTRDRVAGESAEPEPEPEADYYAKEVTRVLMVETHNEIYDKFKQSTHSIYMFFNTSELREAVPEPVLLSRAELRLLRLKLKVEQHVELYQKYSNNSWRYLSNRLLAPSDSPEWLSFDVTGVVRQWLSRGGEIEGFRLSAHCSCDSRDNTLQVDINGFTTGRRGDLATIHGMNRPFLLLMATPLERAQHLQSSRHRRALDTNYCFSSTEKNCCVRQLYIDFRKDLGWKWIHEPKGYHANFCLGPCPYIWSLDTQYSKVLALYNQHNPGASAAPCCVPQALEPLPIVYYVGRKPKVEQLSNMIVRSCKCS
# Experiment: FACS on 293-GARP/TGFβ cells
row,Binder,EC50
1,B5,2.5 nM
2,B6,2.7 nM
3,B7,> 5 nM

# Target: PD-L1-Biotin (UniProt Q9NZQ7 19-238, limits assumed, biotin label (site not stated))
# Sequence (Q9NZQ7 19-238 limits assumed): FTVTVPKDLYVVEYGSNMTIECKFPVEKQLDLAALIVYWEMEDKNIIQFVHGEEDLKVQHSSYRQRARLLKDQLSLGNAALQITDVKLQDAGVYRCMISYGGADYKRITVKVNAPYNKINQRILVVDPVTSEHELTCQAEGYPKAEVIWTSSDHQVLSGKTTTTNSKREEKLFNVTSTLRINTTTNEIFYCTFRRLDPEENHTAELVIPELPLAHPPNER
# Experiment: competitive FACS: blocks PD-L1-Biotin binding to 293T-PD-1 cells
row,Binder,IC50
1,B8,2.6 nM
2,B9,1.68 nM
3,B10,12 nM
4,B11,2.1 nM
5,B12,1 nM
6,B13,1.02 nM
7,B14,4 nM
8,B15,2.54 nM
9,B16,2.08 nM
10,B17,3.4 nM

# Target: T1, human transforming growth factor β1
# Experiment: ELISA, plate-coated hTGF-β1
# Remark: another data set of the same source
row,Binder,EC50
1,B5,< 1 nM
2,B6,< 1 nM
3,B7,< 1 nM

# Target: T3, human PD-L1 (human, UniProt Q9NZQ7 19-290)
# T3 construct: whole, on cells; also called hPD-L1; PD-L1 antigen on MDA-MB-231 cells
# T3 sequence (Q9NZQ7 19-290): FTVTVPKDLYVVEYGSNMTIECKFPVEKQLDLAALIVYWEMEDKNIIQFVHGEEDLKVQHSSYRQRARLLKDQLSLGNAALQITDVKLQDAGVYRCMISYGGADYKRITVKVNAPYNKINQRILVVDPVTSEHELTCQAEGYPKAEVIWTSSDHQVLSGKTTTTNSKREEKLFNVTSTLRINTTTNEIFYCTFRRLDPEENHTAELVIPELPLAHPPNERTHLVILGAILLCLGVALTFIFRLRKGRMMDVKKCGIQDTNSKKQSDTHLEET
# Experiment: FACS on PD-L1-expressing cells, similar method
row,Binder,EC50
1,B8,0.18 nM
2,B10,0.29 nM
3,B14,0.051 nM
4,B17,0.18 nM

# Target: T3, human PD-L1
# Experiment: FACS on MDA-MB-231 cells (endogenous PD-L1)
row,Binder,EC50
1,B9,0.042 nM
2,B11,0.039 nM
3,B13,0.089 nM
4,B15,0.053 nM
5,B16,0.031 nM

# Target: T3, human PD-L1
# Experiment: competitive FACS: blocks human-CD80-mFc binding to 293T-PD-L1 cells
row,Binder,IC50
1,B8,~1.5 nM
2,B9,4.15 nM
3,B11,4.76 nM
4,B12,~3.2 nM
5,B13,3.95 nM
6,B14,~1.8 nM
7,B15,2.98 nM
8,B16,3.35 nM
9,B17,~1.7 nM

# Target: T2, GARP-TGF-β complex (293-GARP/TGFβ …)
# Experiment: FACS on 293-GARP/TGFβ cells
# Remark: another data set of the same source
row,Binder,EC50
1,B18,1.6 nM
2,B19,4.4 nM
3,B20,1.5 nM

# Target: T3, human PD-L1
# Experiment: FACS on MC38-hPD-L1 cells
row,Binder,binding result
1,B2,no binding (tested: initial concentration 200 nM)
2,B4,no binding (tested: initial concentration 200 nM)

# Target: T2, GARP-TGF-β complex (293-GARP/TGFβ …)
# Experiment: FACS on 293-GARP/TGFβ cells
# Remark: another data set of the same source
row,Binder,EC50
1,B1,7.5 nM
2,B2,4 nM
3,B3,> 5 nM
4,B4,2.5 nM
